Test [1] has as its target T1, eIF4E Ser209Ala (knock-in, 4Eki mice) (mouse (endogenous in forebrain), UniProt P63073 1-217, Ser209Ala).
T1 construct: The mice are described in Gkogkas et al., 2014; also called Ser209Ala mutant; source: endogenous (knock-in allele), 4Eki mouse forebrain lysate
Put plainly: pull-down; cap-column pulldown: 500 ug forebrain lysate protein with 50 ul m7GDP agarose in buffer C (50 mM MOPS-KOH pH 7.4, 100 mM NaCl, 50 mM NaF, 0.5 mM EDTA, 0.5 mM EGTA, 0.1 mM GTP), 90 min at 4 C; eIF4E held by its ligand m7GDP; cap-bound fraction immunoblotted and quantified, normalised to input. To be noted: partners not purified. In general terms: Immunoblotting shows a protein as a band on a membrane.

Test [2] deals with T2, eukaryotic Initiation Factor 4E (eIF4E), wild type (mouse (endogenous in forebrain), UniProt P63073 1-217).
T2 construct: also called WT; source: endogenous, WT mouse forebrain lysate
Described as above. To be noted: partners not purified.

The values below come from PMC5824745 (The Journal of Neuroscience, 2018).

B1: eIF4G (natural protein, mouse (endogenous in forebrain), UniProt Q6NZJ6 1-1600, looked up)
chain: MNKAPQPTGPPPARSPGLPQPAFPPGQTAPVVFSTPQATQMNTPSQPRQGGFRSLQHFYPSRAQPPSSAASRVQSAAPARPGPAPHVYPAGSQVMMIPSQISYSASQGAYYIPGQGRSTYVVPTQQYPVQPGAPGFYPGASPTEFGTYAGAYYPAQGVQQFPASVAPAPVLMNQPPQIAPKRERKTIRIRDPNQGGKDITEEIMSGARTASTPTPPQTGGSLEPQPNGESPQVAVIIRPDDRSQGAAIGGRPGLPGPEHSPGTESQPSSPSPTPSPPPILEPGSESNLGVLSIPGDTMTTGMIPMSVEESTPISCETGEPYCLSPEPTLAEPILEVEVTLSKPIPESEFSSSPLQVSTALVPHKVETHEPNGVIPSEDLEPEVESSTEPAPPPLSPCASESLVPIAPTAQPEELLNGAPSPPAVDLSPVSEPEEQAKKVSSAALASILSPAPPVAPSDTSPAQEEEMEEDDDDEEGGEAESEKGGEDVPLDSTPVPAQLSQNLEVAAATQVAVSVPKRRRKIKELNKKEAVGDLLDAFKEVDPAVPEVENQPPTGSNPSPESEGSMVPTQPEETEETWDSKEDKIHNAENIQPGEQKYEYKSDQWKPLNLEEKKRYDREFLLGFQFIFASMQKPEGLPHITDVVLDKANKTPLRQLDPSRLPGINCGPDFTPSFANLGRPALSNRGPPRGGPGGELPRGPAGLGPRRSQQGPRKETRKIISSVIMTEDIKLNKAEKAWKPSSKRTAADKDRGEEDADGSKTQDLFRRVRSILNKLTPQMFQQLMKQVTQLAIDTEERLKGVIDLIFEKAISEPNFSVAYANMCRCLMALKVPTTEKPTVTVNFRKLLLNRCQKEFEKDKDDDEVFEKKQKEMDEAATAEERGRLKEELEEARDIARRRSLGNIKFIGELFKLKMLTEAIMHDCVVKLLKNHDEESLECLCRLLTTIGKDLDFAKAKPRMDQYFNQMEKIIKEKKTSSRIRFMLQDVLDLRQSNWVPRRGDQGPKTIDQIHKEAEMEEHREHIKVQQLMAKGSDKRRGGPPGPPINRGLPLVDDGGWNTVPISKGSRPIDTSRLTKITKPGSIDSNNQLFAPGGRLSWGKGSSGGSGAKPSDTASEATRPATLNRFSALQQTLPAENTDNRRVVQRSSLSRERGEKAGDRGDRLERSERGGDRGDRLDRARTPATKRSFSKEVEERSRERPSQPEGLRKAASLTEDRGRDPVKREATLPPVSPPKAALSVDEVEKKSKAIIEEYLHLNDMKEAVQCVQELASPSLLFIFVRLGIESTLERSTIAREHMGRLLHQLLCAGHLSTAQYYQGLYETLELAEDMEIDIPHVWLYLAELITPILQEDGVPMGELFREITKPLRPMGKATSLLLEILGLLCKSMGPKKVGMLWREAGLSWREFLAEGQDVGSFVAEKKVEYTLGEESEAPGQRTLAFEELRRQLEKLLKDGGSNQRVFDWIDANLNEQQIASNTLVRALMTTVCYSAIIFETPLRVDVQVLKVRARLLQKYLCDEQKELQALYALQALVVTLEQPANLLRMFFDALYDEDVVKEDAFYSWESSKDPAEQQGKGVALKSVTAFFNWLREAEDEESDHN
notes: eIF4G, mouse, endogenous in forebrain; detected with an antibody against eIF4G1 (Cell Signaling Technology 2498); also called eIF4G1; scaffolding protein of eIF4F; source: endogenous, mouse forebrain lysate (WT or 4Eki)
Take B1: the “cap-bound protein (arbitrary units, normalised to input)” value in test [1] is 0.83 arbitrary units; in test [2] it was 1 arbitrary units.

B2: Gapdh (natural protein)
chain: not shown
notes: Gapdh, mouse, endogenous in forebrain; also called GAIT complex protein; source: endogenous, mouse forebrain lysate (WT or 4Eki)
In the case of B2, the “cap-bound protein (arbitrary units, normalised to input)” value in test [1] stood at 0.775 arbitrary units.

B3: Eprs (natural protein, mouse (endogenous in forebrain), UniProt Q8CGC7 1-1512, looked up)
chain: MAALCLTVNAGNPPLEALLAVEHVKGDVSISVEEGKENLLRVSETVAFTDVNSILRYLARIATTSGLYGTNLMEHTEIDHWLEFSATKLSSCDRLTSAINELNHCLSLRTYLVGNSLTLADLCVWATLKGSAAWQEHLKQNKTLVHVKRWFGFLEAQQAFRSVGTKWDVSGNRATVAPDKKQDVGKFVELPGAEMGKVTVRFPPEASGYLHIGHAKAALLNQHYQVNFKGKLIMRFDDTNPEKEKEDFEKVILEDVAMLHIKPDQFTYTSDHFETIMKYAEKLIQEGKAYVDDTPAEQMKAEREQRTESKHRKNSVEKNLQMWEEMKKGSQFGQSCCLRAKIDMSSNNGCMRDPTLYRCKIQPHPRTGNKYNVYPTYDFACPIVDSIEGVTHALRTTEYHDRDEQFYWIIEALGIRKPYIWEYSRLNLNNTVLSKRKLTWFVNEGLVDGWDDPRFPTVRGVLRRGMTVEGLKQFIAAQGSSRSVVNMEWDKIWAFNKKVIDPVAPRYVALLKKEVVPVNVLDAQEEMKEVARHPKNPDVGLKPVWYSPKVFIEGADAETFSEGEMVTFINWGNINITKIHKNADGKITSLDAKLNLENKDYKKTTKITWLAESTHALSIPAVCVTYEHLITKPVLGKDEDFKQYINKDSKHEELMLGDPCLKDLKKGDIIQLQRRGFFICDQPYEPVSPYSCREAPCILIYIPDGHTKEMPTSGSKEKTKVEISKKETSSAPKERPAPAVSSTCATAEDSSVLYSRVAVQGDVVRELKAKKAPKEDIDAAVKQLLTLKAEYKEKTGQEYKPGNPSAAAVQTVSTKSSSNTVESTSLYNKVAAQGEVVRKLKAEKAPKAKVTEAVECLLSLKAEYKEKTGKDYVPGQPPASQNSHSNPVSNAQPAGAEKPEAKVLFDRVACQGEVVRKLKAEKASKDQVDSAVQELLQLKAQYKSLTGIEYKPVSATGAEDKDKKKKEKENKSEKQNKPQKQNDGQGKDSSKSQGSGLSSGGAGEGQGPKKQTRLGLEAKKEENLAEWYSQVITKSEMIEYYDVSGCYILRPWSYSIWESIKDFFDAEIKKLGVENCYFPIFVSQAALEKEKNHIEDFAPEVAWVTRSGKTELAEPIAIRPTSETVMYPAYAKWVQSHRDLPVRLNQWCNVVRWEFKHPQPFLRTREFLWQEGHSAFATFEEAADEVLQILELYARVYEELLAIPVVRGRKTEKEKFAGGDYTTTIEAFISASGRAIQGATSHHLGQNFSKMCEIVFEDPKTPGEKQFAYQCSWGLTTRTIGVMVMVHGDNMGLVLPPRVASVQVVVIPCGITNALSEEDREALMAKCNEYRRRLLGANIRVRVDLRDNYSPGWKFNHWELKGVPVRLEVGPRDMKSCQFVAVRRDTGEKLTIAEKEAEAKLEKVLEDIQLNLFTRASEDLKTHMVVSNTLEDFQKVLDAGKVAQIPFCGEIDCEDWIKKMTARDQDVEPGAPSMGAKSLCIPFNPLCELQPGAMCVCGKNPAKFYTLFGRSY
notes: Eprs (glutamyl-prolyl-tRNA synthetase), mouse, endogenous in forebrain; also called GAIT complex protein; source: endogenous, mouse forebrain lysate (WT or 4Eki)
Regarding B3, the “cap-bound protein (arbitrary units, normalised to input)” value in test [2] came to 1 arbitrary units.
